Measurements: US20250282871A1, “PHARMACEUTICAL COMBINATION AND USE THEREOF” (TIANJIN LIPOGEN TECHNOLOGY CO., LTD, priority 2021, published 2025)

Tested on: colorectal carcinoma MC38
Assay: Example 7.2.1: MC38 subcutaneous xenograft, marketed PD-1 inhibitors and 2′,3′-cGAMP
Type: in vivo, mouse
Conditions: intratumor injection; PD-1 antibody 10 mg/kg, 2′,3′-cGAMP 1 mg/kg; every other day, 3 times
Description: Tumor cells were cultured and passaged, cells were collected at the logarithmic phase, and formulated into a concentration of (1.0×10^7) per milliliter of cell suspension with 0.1 ml (with a cell number of 1.0×10^6) being injected into the right flank of the mice, the tumor grew to a diameter of about 5 mm within about 10 days, and the model was successfully established, they were randomly divided into 8 groups with 8 mice per group.
Trend of changes in body weight and tumor volume of mice, survival rate of mice, and inhibitory rate of anatomical tumor weight.
Drug interaction coefficient: CDI(CI)=AB/A*B. AB is the ratio of the combination group of two drugs to the control group, as calculated based on the anatomical tumor weight. A or B is the ratio of single drug group to control group.
After successfully establishing a subcutaneous xenograft tumor model of colorectal carcinoma MC38 in mice, they were randomly grouped with 6-8 mice per group and administered once every two days, a total of 3 times.

B1: Tislelizumab: marketed PD-1 monoclonal antibody (antibody, chains of the INN, looked up)
heavy: QVQLQESGPGLVKPSETLSLTCTVSGFSLTSYGVHWIRQPPGKGLEWIGVIYADGSTNYNPSLKSRVTISKDTSKNQVSLKLSSVTAADTAVYYCARAYGNYWYIDVWGQGTTVTVSSASTKGPSVFPLAPCSRSTSESTAALGCLVKDYFPEPVTVSWNSGALTSGVHTFPAVLQSSGLYSLSSVVTVPSSSLGTKTYTCNVDHKPSNTKVDKRVESKYGPPCPPCPAPPVAGGPSVFLFPPKPKDTLMISRTPEVTCVVVAVSQEDPEVQFNWYVDGVEVHNAKTKPREEQFNSTYRVVSVLTVVHQDWLNGKEYKCKVSNKGLPSSIEKTISKAKGQPREPQVYTLPPSQEEMTKNQVSLTCLVKGFYPSDIAVEWESNGQPENNYKTTPPVLDSDGSFFLYSKLTVDKSRWQEGNVFSCSVMHEALHNHYTQKSLSLSLG
light: DIVMTQSPDSLAVSLGERATINCKSSESVSNDVAWYQQKPGQPPKLLINYAFHRFTGVPDRFSGSGYGTDFTLTISSLQAEDVAVYYCHQAYSSPYTFGQGTKLEIKRTVAAPSVFIFPPSDEQLKSGTASVVCLLNNFYPREAKVQWKVDNALQSGNSQESVTEQDSKDSTYSLSSTLTLSKADYEKHKVYACEVTHQGLSSPVTKSFNRGEC
IRTW % (tumor weight inhibitory rate): 61.4% | Tumor Weight: 0.59 g

B2: Camrelizumab: marketed PD-1 monoclonal antibody (antibody, chains of the INN, looked up, V domains shown)
VH: EVQLVESGGGLVQPGGSLRLSCAASGFTFSSYMMSWVRQAPGKGLEWVATISGGGANTYYPDSVKGRFTISRDNAKNSLYLQMNSLRAEDTAVYYCARQLYYFDYWGQGTTVTVSS
VL: DIQMTQSPSSLSASVGDRVTITCLASQTIGTWLTWYQQKPGKAPKLLIYTATSLADGVPSRFSGSGSGTDFTLTISSLQPEDFATYYCQQVYSIPWTFGGGTKVEIK
IRTW % (tumor weight inhibitory rate): 19.6% | Tumor Weight: 1.23 g
